In data set [1] the target is Plasmodium falciparum Hsp70-z (PfHsp70-z), recombinant (His)6-PfHsp70-z (Plasmodium falciparum). In words: SPR; ProteOn XPR36, GLC chip, ligand immobilised by amine coupling (PfHsp70-z, 187 RU); analyte 125-2000 nM at 50 ul/min; 25°C; PBS-Tween with 20 mM EDTA, pH 7.4; no nucleotide; Langmuir model. In general terms: In SPR one partner is held on a chip, and binding of the other changes the refractive index at the surface.

Data set [2] has the same target. The experiment in a line: SPR; ProteOn XPR36, GLC chip, ligand immobilised by amine coupling (PfHsp70-z, 187 RU); analyte 125-2000 nM at 50 ul/min; 25°C; PBS-Tween with 20 mM EDTA, pH 7.4; with 5 mM ADP; Langmuir model.
Data set [3] shares this target. In words: SPR; ProteOn XPR36, GLC chip, ligand immobilised by amine coupling (PfHsp70-z, 187 RU); analyte 125-2000 nM at 50 ul/min; 25°C; PBS-Tween with 20 mM EDTA, pH 7.4; with 5 mM ATP; Langmuir model.
The target of a further data set is hHsp70 (Homo sapiens) (UniProt P0DMV8). In words: SPR. Conditions: cited from earlier work.
The test system of data set [4] is Nc1ncnc2c1ncn2[C@@H]1O[C@H](COP(=O)(O)OP(=O)(O)OP(=O)(O)O)[C@@H](O)[C@H]1O. The experiment in a line: purified protein. Conditions: basal ATPase, buffer presumably as for PfHsp70-z (pH 7.5, MgCl2), kcat unit as printed.

This is an account of results in paper PMC4471362.

Chain of hHsp70 (P0DMV8 2-641): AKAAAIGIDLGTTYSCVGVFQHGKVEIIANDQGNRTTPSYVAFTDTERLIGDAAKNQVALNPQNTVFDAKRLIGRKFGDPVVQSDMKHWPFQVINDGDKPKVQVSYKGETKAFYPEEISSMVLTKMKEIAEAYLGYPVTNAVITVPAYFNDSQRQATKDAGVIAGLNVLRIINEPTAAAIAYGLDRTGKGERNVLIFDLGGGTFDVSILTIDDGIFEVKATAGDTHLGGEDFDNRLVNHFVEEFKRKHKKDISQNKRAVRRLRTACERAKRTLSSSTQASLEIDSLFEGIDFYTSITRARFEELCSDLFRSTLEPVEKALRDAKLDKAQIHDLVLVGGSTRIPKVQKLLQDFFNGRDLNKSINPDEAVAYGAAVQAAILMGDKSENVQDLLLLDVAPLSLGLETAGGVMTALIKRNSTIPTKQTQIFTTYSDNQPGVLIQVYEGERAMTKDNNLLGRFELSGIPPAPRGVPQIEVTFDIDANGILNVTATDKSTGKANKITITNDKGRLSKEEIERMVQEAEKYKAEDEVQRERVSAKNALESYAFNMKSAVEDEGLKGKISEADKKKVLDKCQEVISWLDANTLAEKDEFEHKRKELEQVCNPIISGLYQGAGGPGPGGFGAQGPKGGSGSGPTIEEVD

Turning to “Plasmodium falciparum Hsp70-z (PfHsp70-z), recombinant (His)6-PfHsp70-z (natural protein)”, in data set [1], the Kd (commonly the equilibrium constant for the complex coming apart) is 7.97 nM; the koff (as a rule, a measure of how fast the partners let go of each other) amounted to 9.54e-05 s⁻¹; the kon (as a rule, the rate constant with which the complex forms) was determined as 12000 M⁻¹ s⁻¹. Further, in data set [2], the Kd came to 11.5 nM, the koff was 7.6e-05 s⁻¹ and the kon worked out at 6620 M⁻¹ s⁻¹. In addition, in data set [3], the Kd was 11.3 nM, the koff came out at 3.2e-05 s⁻¹ and the kon was 2840 M⁻¹ s⁻¹.
In the case of hHsp70 (from UniProt P0DMV8), the Kd with hHsp70 (Homo sapiens) was 4.5 nM.
For the substance PfHsp70-1 (Plasmodium falciparum 3D7), in data set [4], the Km is 428 (+/- 5) μM and the Vmax – broadly, the top rate of the reaction or transport when substrate is in excess – came out at 0.0246 µmol/min/mg.
